Reference: patent publication US20150086555A1

Assays:
Conditions in all cases: remark: other sources report otherwise
[1] = target: recombinant soluble homotrimeric HA of A/Japan/305/57 (H2N2) (Influenza A virus A/Japan/305/1957(H2N2)); assay: trimeric HA microarray, transfection supernatant set 2
[2] = target: recombinant soluble homotrimeric HA of A/Vietnam/1203/04 (H5N1) (Influenza A virus A/VietNam/1203/2004(H5N1)); assay: as above
[3] = target: T1, recombinant soluble homotrimeric HA of A/Egypt/3300-NAMRU3/08 (H5N1) (Influenza A virus A/Egypt/3300-NAMRU3/2008(H5N1)); assay: as above
[4] = target: recombinant soluble homotrimeric HA of A/California/4/09 (H1N1) (Influenza A virus A/California/04/2009(H1N1)); assay: as above
[5] = target: recombinant soluble homotrimeric HA of A/South Carolina/1/18 (H1N1) (Influenza A virus A/South Carolina/1/18 (H1N1)); assay: as above
[6] = target: recombinant soluble homotrimeric HA of A/Indonesia/5/05 (H5N1) (Influenza A virus A/Indonesia/5/2005(H5N1)); assay: as above
[7] = target: recombinant soluble homotrimeric HA of A/Hong Kong/2108/03 (H9N2) (Influenza A virus A/HK/2108/2003(H9N2)); assay: as above
[8] = target: recombinant soluble homotrimeric HA of A/Solomon Islands/3/06 (H1N1) (Influenza A virus A/Solomon Islands/3/2006(H1N1)); assay: as above
[9] = target: recombinant soluble homotrimeric HA of A/chicken/Vietnam/NCVD-016/08 (H5N1) (Influenza A virus A/chicken/Vietnam/NCVD-016/2008(H5N1)); assay: as above
[10] = target: recombinant soluble homotrimeric HA of A/Anhui/1/05 (H5N1) (Influenza A virus A/Anhui/1/2005(H5N1)); assay: as above
[11] = target: recombinant soluble homotrimeric HA of A/Netherlands/219/03 (H7N7) (Influenza A virus A/Netherlands/219/03(H7N7)); assay: as above
[12] = target: recombinant homotrimeric HA A/swine/Ontario/01911-2/99 H4N6 (Influenza A virus A/Swine/Ontario/01911-2/99 (H4N6)); assay: protein microarray, purified IgG, trimeric HA
[13] = target: recombinant homotrimeric HA A/duck/Yangzhou/02/05 H8N4 (Influenza A virus A/duck/Yangzhou/02/2005(H8N4)); assay: protein microarray, purified IgG, trimeric HA
[14] = target: T1, recombinant soluble homotrimeric HA of …; assay: HA microarray, BCC supernatant
[15] = target: recombinant soluble homotrimeric HA, A/northern shoveler/California/HKWF115/07 H6N4 (Influenza A virus A/northern shoveler/California/HKWF115/2007(H6N1)); assay: microarray, transfection SN IgG, trimeric HA
[16] = target: recombinant soluble homotrimeric HA, A/chicken/Vietnam/NCVD-016/08 H5N1 (Influenza A virus A/chicken/Vietnam/NCVD-016/2008(H5N1)); assay: microarray, transfection SN IgG, trimeric HA
[17] = target: recombinant soluble homotrimeric HA, A/Solomon Islands/3/06 H1N1 (Influenza A virus A/Solomon Islands/3/2006(H1N1)); assay: microarray, transfection SN IgG, trimeric HA
[18] = target: recombinant soluble homotrimeric HA, A/Egypt/3300-NAMRU3/08 H5N1 (Influenza A virus A/Egypt/3300-NAMRU3/2008(H5N1)); assay: microarray, transfection SN IgG, trimeric HA
[19] = target: recombinant soluble homotrimeric HA, A/Hong Kong/156/97 H5N1 (Influenza A virus A/Hong Kong/156/97 (H5N1)); assay: microarray, transfection SN IgG, trimeric HA
[20] = target: recombinant soluble homotrimeric HA, A/Anhui/1/05 H5N1 (Influenza A virus A/Anhui/1/2005(H5N1)); assay: microarray, transfection SN IgG, trimeric HA
[21] = target: recombinant soluble homotrimeric HA, A/Indonesia/5/05 H5N1 (Influenza A virus A/Indonesia/5/2005(H5N1)); assay: microarray, transfection SN IgG, trimeric HA
[22] = target: recombinant soluble homotrimeric HA, A/Japan/305/57 H2N2 (Influenza A virus A/Japan/305/1957(H2N2)); assay: microarray, transfection SN IgG, trimeric HA
[23] = target: recombinant soluble homotrimeric HA, A/California/4/09 H1N1 (Influenza A virus A/California/04/2009(H1N1)); assay: microarray, transfection SN IgG, trimeric HA
[24] = target: recombinant soluble homotrimeric HA, A/Vietnam/1203/04 H5N1 (Influenza A virus A/VietNam/1203/2004(H5N1)); assay: microarray, transfection SN IgG, trimeric HA
[25] = target: recombinant soluble homotrimeric HA, A/South Carolina/1/18 H1N1 (Influenza A virus A/South Carolina/1/18 (H1N1)); assay: microarray, transfection SN IgG, trimeric HA

B1: TCN-528 (5087_P17) (antibody, V domains shown)
VH: QVQLVQSGSEVKKPGASVKVSCKASGYTFTNYDINWIRQAPGQGLEWMGWINPNSGTTGSAQRFQGRVTITVDTSITTVYMELSSLRSDDTAIYYCARGRELLRLQHFLTDSQSERRDCFDPWGQGTLVTVSS
VL: DIQMTQSPSSLSASVGDRVTITCRANQDIGIYLNWYQQNPGKVPKLLLHGASSLQGGVPSRFSASGSGTDFTLTIHSLQPEDLATYYCQQSRRLPYTFGQGTRVELK
B1 was tested, and the Trimeric HA Binding: RLU [1] was 23100 RLU, the Trimeric HA Binding: RLU [2] was 23300 RLU and the Trimeric HA Binding: RLU [3] was 36800 RLU. The Trimeric HA Binding: RLU [4] was 44600 RLU, the Trimeric HA Binding: RLU [5] was 25200 RLU and the Trimeric HA Binding: RLU [6] was 39700 RLU. The Trimeric HA Binding: RLU [7] was 33600 RLU, the Trimeric HA Binding: RLU [8] was 26900 RLU and the Trimeric HA Binding: RLU [9] was 22600 RLU. For the same binder, the Trimeric HA Binding: RLU [10] was 21200 RLU, the Trimeric HA Binding: RLU [11] was 47200 RLU and the Trimeric HA Binding: RLU [12] was 9490 RLU. For the same binder, the Trimeric HA Binding: RLU [13] was 24100 RLU.

B2: TCN-523 (5248_A17) (antibody, V domains shown)
VH: QVQLVQSGAEVKKPGSSVKVSCKASGGSFSNYAFSWVRQAPGQGLEWMGGTIPLLGTTNYAQKFQGRVTISADQFTSTAYMELGSLRSEDTAVYYCTRRKMTTAFDSWGQGTLVTVSS
VL: QPVLTQPPSASASLGASVTLTCTLSSAYSNYKVDWYQQRPGKGPRFVMRVGTGGIVGSKGDGIPDRFSVLGSGLNRYLTIKNIQEEDESDYHCGADHGSGSNFVSPYVFGGGTKLTVL
Work on B2 yielded a Trimeric HA Binding: RLU [14] of 36500 RLU, a Trimeric HA Binding: RLU [1] of 882 RLU and a Trimeric HA Binding: RLU [2] of 26200 RLU. The Trimeric HA Binding: RLU [3] was 30700 RLU, the Trimeric HA Binding: RLU [4] was 18700 RLU and the Trimeric HA Binding: RLU [5] was 25500 RLU. The Trimeric HA Binding: RLU [6] was 24500 RLU, the Trimeric HA Binding: RLU [7] was 18 RLU and the Trimeric HA Binding: RLU [8] was 3270 RLU. For the same binder, the Trimeric HA Binding: RLU [9] was 17600 RLU, the Trimeric HA Binding: RLU [10] was 139 RLU and the Trimeric HA Binding: RLU [11] was 407 RLU. For the same binder, the Trimeric HA Binding: RLU [12] was 85 RLU, the Trimeric HA Binding: RLU [15] was 46900 RLU and the Trimeric HA Binding: RLU [16] was 51300 RLU. The Trimeric HA Binding: RLU [17] was 37600 RLU, the Trimeric HA Binding: RLU [18] was 35500 RLU and the Trimeric HA Binding: RLU [19] was 28400 RLU. The Trimeric HA Binding: RLU [20] was 6080 RLU, the Trimeric HA Binding: RLU [21] was 55000 RLU and the Trimeric HA Binding: RLU [22] was 22000 RLU. For the same binder, the Trimeric HA Binding: RLU [23] was 34400 RLU, the Trimeric HA Binding: RLU [24] was 27800 RLU and the Trimeric HA Binding: RLU [25] was 52000 RLU.
